Each block holds one binder with its values, some of them ahead of it.
Key:
[1] = target: SEQ ID NO: 346 glycopeptide with TF-antigen at Thr16; test: ELISA on coated glycopeptide, antibody 0.01 mg/ml, mean of 3
[2] = target: SEQ ID NO: 346 glycopeptide with Tn-antigen at Thr4, Thr9 and Thr16; test: as above
BSA = BSA (UniProt P02769); test: ELISA on coated BSA, antibody 0.01 mg/ml, mean of 3
[3] = target: Normal MUC1 on non-transformed MCF-10A cells and on normal tissue (human) (UniProt P15941); test: flow cytometry, MCF10a cells

Chain of BSA (P02769 25-607 limits assumed): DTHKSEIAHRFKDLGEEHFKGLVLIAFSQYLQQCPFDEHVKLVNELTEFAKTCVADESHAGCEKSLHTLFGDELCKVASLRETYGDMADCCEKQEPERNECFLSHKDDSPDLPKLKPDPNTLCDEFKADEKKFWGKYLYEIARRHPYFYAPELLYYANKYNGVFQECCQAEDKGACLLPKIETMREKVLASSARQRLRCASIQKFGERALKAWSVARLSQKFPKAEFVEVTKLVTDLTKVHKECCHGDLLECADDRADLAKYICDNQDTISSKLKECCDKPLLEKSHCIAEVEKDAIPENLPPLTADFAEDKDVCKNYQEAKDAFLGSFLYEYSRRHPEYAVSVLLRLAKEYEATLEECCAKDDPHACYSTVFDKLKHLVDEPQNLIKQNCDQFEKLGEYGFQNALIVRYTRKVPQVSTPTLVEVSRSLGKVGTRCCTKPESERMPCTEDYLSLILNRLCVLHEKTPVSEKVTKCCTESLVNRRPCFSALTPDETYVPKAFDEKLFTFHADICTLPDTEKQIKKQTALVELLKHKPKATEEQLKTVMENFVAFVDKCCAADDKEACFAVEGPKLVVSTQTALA

B4: M7 (antibody, human IgG1, kappa, V domains shown)
VH: EVQLVESGGGLVQPGGSLRLSCAASGFTVSSNYMSWVRQAPGKGLEWVSVIYSGGSTYYADSVKGRFTISRDNSKNTLYLQMNSLRAEDTAVYYCARGSTNTYYYDSSGHPWGQGTMVTVSS
VL: DIVMTQSPLSLPATPGEPASISCRSSQSLLHSNGYTYLDWYLQKPGQSPQVLIYLASNRASGVPDRFSGSGSGTNFTLKISRVEAEDVGLFYCMQALQTPQTFGQGTKLEIKR
ELISA absorbance at 450 nm (BSA): 0.1 absorbance
percentage of APC+ stained cells [3]: 0.95%

B5: M3 (antibody, human IgG1, lambda, V domains shown)
VH: QLQLQESGPGLVKPSETLSLTCTVSGGSISSSSYYWGWIRQPPGKGLEWIGSIYYSGSTHYNPSLKSRVTISVDTSKNQFSLKLRSVTAADTAVYYCARGVVEVRGNHYYYYYMDVWGKGTTVTVSS
VL: QSVLTQPPSVSGAPGQRVTISCTGSSSNIGAGYDVHWYQQLPGTAPKLLIYGNSYRPSGVPDRFSGSKSGTSASLAITGLQAEDEADYYCQSYDSSLSGSGVFGGGTKLTVLG
ELISA absorbance at 450 nm (BSA): 0.1 absorbance
percentage of APC+ stained cells [3]: 3.14%

Continued, values first:

ELISA absorbance at 450 nm [1]: 0.1 absorbance
ELISA absorbance at 450 nm [2]: 0.1 absorbance
ELISA absorbance at 450 nm (BSA): 0.1 absorbance
percentage of APC+ stained cells [3]: 4.45%
B1: M20 (antibody, human IgG1, kappa, V domains shown)
VH: EVQLVESGGGLVQPGGSLRLSCAASGFTFSSYWMHWVRQAPGKGLVWVSHINSDGSSTSYADSVKGRFTISRDNAKNTLYLQMNSLRAEDTAVYYCARELADWGQGTLVTVSS
VL: DVVMTQSPLSLPVTLGQPASISCRSSQSLVYSDGNTYLNWFQQRPGQSPRRLIYQVSNRDSGVPDRFSGSGSGTDFTLKIGRVEAEDVGVYFCMQGTHWPWTFGQGTKVEIKR

ELISA absorbance at 450 nm [1]: 0.1 absorbance
ELISA absorbance at 450 nm [2]: 0.1 absorbance
ELISA absorbance at 450 nm (BSA): 0.1 absorbance
percentage of APC+ stained cells [3]: 2.17%
B2: M22 (antibody, human IgG1, kappa, V domains shown)
VH: EVQLVESGGGLVQPGGSLRLSCAASGFTVSSNYMSWVRQAPGKGLEWVSVIYSGGTTYYADSVKGRFTISRHNSKNTLYLQMNSLRAEDTAVYYCARDHDPDYGGYYMDVWGKGTTVTVSS
VL: B1 VL

ELISA absorbance at 450 nm [1]: 0.1 absorbance
ELISA absorbance at 450 nm [2]: 0.1 absorbance
ELISA absorbance at 450 nm (BSA): 0.1 absorbance
percentage of APC+ stained cells [3]: 2.67%
B3: M21 (antibody, human IgG1, kappa, V domains shown)
VH: EVQLVESGGGLVQPGGSLRLSCAASGFTVSSNYMSWVRQAPGKGLEWVSVIYSGGSTYYADSVKGRFTISRDNSKNTLYLQMNSLRAEDTAVYYCARDQEHYFDGSGYYVDYWGQGTLVTVSS
VL: B1 VL
